Measured values published in US20220119490A1 (Genentech, published 2022).

T1: EPHA3 extracellular domain (human, UniProt P29320 21-541)
T1 construct: extracellular domain; ECD construct; also called ephrin type-A receptor 3
T1 sequence (looked up): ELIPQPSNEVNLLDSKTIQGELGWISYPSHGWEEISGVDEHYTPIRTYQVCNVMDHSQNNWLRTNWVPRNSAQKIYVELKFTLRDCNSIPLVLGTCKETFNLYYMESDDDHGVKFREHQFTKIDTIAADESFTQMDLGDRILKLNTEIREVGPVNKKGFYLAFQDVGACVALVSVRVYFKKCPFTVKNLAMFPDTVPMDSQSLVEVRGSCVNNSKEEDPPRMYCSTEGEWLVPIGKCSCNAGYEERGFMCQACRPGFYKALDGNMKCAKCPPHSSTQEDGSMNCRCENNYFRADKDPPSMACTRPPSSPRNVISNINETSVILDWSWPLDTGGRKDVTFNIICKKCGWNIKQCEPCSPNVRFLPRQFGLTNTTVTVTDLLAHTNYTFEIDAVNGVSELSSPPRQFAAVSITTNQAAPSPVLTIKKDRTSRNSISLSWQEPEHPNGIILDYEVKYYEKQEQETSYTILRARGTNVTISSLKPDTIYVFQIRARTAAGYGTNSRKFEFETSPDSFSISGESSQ

T2: CD177 extracellular domain (human, UniProt Q8N6Q3 22-408, limits assumed)
T2 construct: extracellular domain; ECD-gD-GPI on COS-7 cells in the screen; recombinant ECD in SPR and CAF assays; streptavidin tetramer in organoid cultures; also called NB1; PRV1
T2 sequence (looked up): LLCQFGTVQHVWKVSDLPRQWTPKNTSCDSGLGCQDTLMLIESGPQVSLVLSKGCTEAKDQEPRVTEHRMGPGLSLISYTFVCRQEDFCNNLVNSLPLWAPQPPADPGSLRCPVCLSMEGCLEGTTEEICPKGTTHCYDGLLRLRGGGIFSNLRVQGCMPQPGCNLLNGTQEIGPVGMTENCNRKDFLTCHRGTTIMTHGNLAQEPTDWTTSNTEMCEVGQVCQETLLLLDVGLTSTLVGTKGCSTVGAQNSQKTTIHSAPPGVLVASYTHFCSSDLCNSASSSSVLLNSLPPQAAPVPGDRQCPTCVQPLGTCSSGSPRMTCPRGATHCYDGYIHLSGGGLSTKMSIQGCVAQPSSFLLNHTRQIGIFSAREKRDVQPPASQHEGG

T3: IL6R expressed on cells (human, UniProt P08887 20-468)
T3 construct: whole, on cells; C-terminally tagged in the co-IP; also called IL6R-HA
T3 sequence (looked up): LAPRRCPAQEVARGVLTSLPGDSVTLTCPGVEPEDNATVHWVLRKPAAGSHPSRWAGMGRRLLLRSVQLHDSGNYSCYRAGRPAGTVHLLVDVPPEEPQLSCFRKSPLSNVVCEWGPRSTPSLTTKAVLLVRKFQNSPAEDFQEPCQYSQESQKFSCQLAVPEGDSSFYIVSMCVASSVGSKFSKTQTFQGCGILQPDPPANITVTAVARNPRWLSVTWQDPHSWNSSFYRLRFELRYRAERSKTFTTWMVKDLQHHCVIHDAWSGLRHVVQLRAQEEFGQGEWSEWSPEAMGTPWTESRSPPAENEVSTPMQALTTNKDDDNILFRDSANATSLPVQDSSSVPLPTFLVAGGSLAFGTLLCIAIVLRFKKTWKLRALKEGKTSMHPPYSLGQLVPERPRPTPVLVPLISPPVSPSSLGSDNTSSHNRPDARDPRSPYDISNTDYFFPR

B1: LILRB5 expressed on cells (receptor, human, UniProt O75023 24-590, looked up)
chain: GTLPKPTLWAEPASVIARGKPVTLWCQGPLETEEYRLDKEGLPWARKRQNPLEPGAKAKFHIPSTVYDSAGRYRCYYETPAGWSEPSDPLELVATGFYAEPTLLALPSPVVASGGNVTLQCDTLDGLLTFVLVEEEQKLPRTLYSQKLPKGPSQALFPVGPVTPSCRWRFRCYYYYRKNPQVWSNPSDLLEILVPGVSRKPSLLIPQGSVVARGGSLTLQCRSDVGYDIFVLYKEGEHDLVQGSGQQPQAGLSQANFTLGPVSRSHGGQYRCYGAHNLSPRWSAPSDPLDILIAGLIPDIPALSVQPGPKVASGENVTLLCQSWHQIDTFFLTKEGAAHPPLCLKSKYQSYRHQAEFSMSPVTSAQGGTYRCYSAIRSYPYLLSSPSYPQELVVSGPSGDPSLSPTGSTPTPGPEDQPLTPTGLDPQSGLGRHLGVVTGVSVAFVLLLFLLLFLLLRHRHQSKHRTSAHFYRPAGAAGPEPKDQGLQKRASPVADIQEEILNAAVKDTQPKDGVEMDAPAAASEAPQDVTYAQLHSLTLRREATEPPPSQEREPPAEPSIYAPLAIH
notes: whole, on cells
B2: LILRA3 (ECD-Fc fusion protein) (Fc fusion, human, UniProt Q8N6C8 24-439, looked up)
chain: GPLPKPTLWAEPGSVITQGSPVTLRCQGSLETQEYHLYREKKTALWITRIPQELVKKGQFPILSITWEHAGRYCCIYGSHTAGLSESSDPLELVVTGAYSKPTLSALPSPVVTSGGNVTIQCDSQVAFDGFILCKEGEDEHPQCLNSHSHARGSSRAIFSVGPVSPSRRWSYRCYGYDSRAPYVWSLPSDLLGLLVPGVSKKPSLSVQPGPVVAPGEKLTFQCGSDAGYDRFVLYKEWGRDFLQRPGRQPQAGLSQANFTLGPVSRSYGGQYTCSGAYNLSSEWSAPSDPLDILITGQIRARPFLSVRPGPTVASGENVTLLCQSQGGMHTFLLTKEGAADSPLRLKSKRQSHKYQAEFPMSPVTSAHAGTYRCYGSLSSNPYLLTHPSDPLELVVSGAAETLSPPQNKSDSKAGE
notes: extracellular domain; Immobilized on the SPR chip
B3: podoplanin (PDPN) extracellular domain (receptor, human, UniProt Q86YL7 23-131, looked up)
chain: ASTGQPEDDTETTGLEGGVAMPGAEDDVVTPGTSEDRYKSGLTTLVATSVNSVTGIRIEDLPTSESTVHAQEQSPSATASNVATSHSTEKVDGDTQTTVEKDGLSTVTL
modifications: biotinylated Avi tag in the tetramer
notes: extracellular domain; Streptavidin-APC tetramer in the screens; monomeric Avi-tagged ectodomain for KD; also called gp38; Aggrus
B4: LILRB1 extracellular domain (receptor, human, UniProt Q8NHL6 24-461, looked up)
chain: GHLPKPTLWAEPGSVITQGSPVTLRCQGGQETQEYRLYREKKTALWITRIPQELVKKGQFPIPSITWEHAGRYRCYYGSDTAGRSESSDPLELVVTGAYIKPTLSAQPSPVVNSGGNVILQCDSQVAFDGFSLCKEGEDEHPQCLNSQPHARGSSRAIFSVGPVSPSRRWWYRCYAYDSNSPYEWSLPSDLLELLVLGVSKKPSLSVQPGPIVAPEETLTLQCGSDAGYNRFVLYKDGERDFLQLAGAQPQAGLSQANFTLGPVSRSYGGQYRCYGAHNLSSEWSAPSDPLDILIAGQFYDRVSLSVQPGPTVASGENVTLLCQSQGWMQTFLLTKEGAADDPWRLRSTYQSQKYQAEFPMGPVTSAHAGTYRCYGSQSSKPYLLTHPSDPLELVVSGPSGGPSSPTTGPTSTSGPEDQPLTPTGSDPQSGLGRHLGV
notes: extracellular domain; also called leukocyte immunoglobulin-like receptor subfamily B member 1
B5: CNTFR extracellular domain (receptor, human, UniProt P26992 23-342, looked up)
chain: QRHSPQEAPHVQYERLGSDVTLPCGTANWDAAVTWRVNGTDLAPDLLNGSQLVLHGLELGHSGLYACFHRDSWHLRHQVLLHVGLPPREPVLSCRSNTYPKGFYCSWHLPTPTYIPNTFNVTVLHGSKIMVCEKDPALKNRCHIRYMHLFSTIKYKVSISVSNALGHNATAITFDEFTIVKPDPPENVVARPVPSNPRRLEVTWQTPSTWPDPESFPLKFFLRYRPLILDQWQHVELSDGTAHTITDAYAGKEYIIQVAAKDNEIGTWSDWSVAAHATPWTEEPRHLTTEAQAAETTTSTTSSLAPPPTTKICDPGELGS
notes: extracellular domain; Soluble query, streptavidin tetramer
B6: LILRB5 extracellular domain (receptor, human, UniProt O75023 24-458, looked up)
chain: GTLPKPTLWAEPASVIARGKPVTLWCQGPLETEEYRLDKEGLPWARKRQNPLEPGAKAKFHIPSTVYDSAGRYRCYYETPAGWSEPSDPLELVATGFYAEPTLLALPSPVVASGGNVTLQCDTLDGLLTFVLVEEEQKLPRTLYSQKLPKGPSQALFPVGPVTPSCRWRFRCYYYYRKNPQVWSNPSDLLEILVPGVSRKPSLLIPQGSVVARGGSLTLQCRSDVGYDIFVLYKEGEHDLVQGSGQQPQAGLSQANFTLGPVSRSHGGQYRCYGAHNLSPRWSAPSDPLDILIAGLIPDIPALSVQPGPKVASGENVTLLCQSWHQIDTFFLTKEGAAHPPLCLKSKYQSYRHQAEFSMSPVTSAQGGTYRCYSAIRSYPYLLSSPSYPQELVVSGPSGDPSLSPTGSTPTPGPEDQPLTPTGLDPQSGLGRHLG
notes: extracellular domain
B7: EDAR expressed on cells (receptor, human, UniProt Q9UNE0 27-448, looked up)
chain: EYSNCGENEYYNQTTGLCQECPPCGPGEEPYLSCGYGTKDEDYGCVPCPAEKFSKGGYQICRRHKDCEGFFRATVLTPGDMENDAECGPCLPGYYMLENRPRNIYGMVCYSCLLAPPNTKECVGATSGASANFPGTSGSSTLSPFQHAHKELSGQGHLATALIIAMSTIFIMAIAIVLIIMFYILKTKPSAPACCTSHPGKSVEAQVSKDEEKKEAPDNVVMFSEKDEFEKLTATPAKPTKSENDASSENEQLLSRSVDSDEEPAPDKQGSPELCLLSLVHLAREKSATSNKSAGIQSRRKKILDVYANVCGVVEGLSPTELPFDCLEKTSRMLSSTYNSEKAVVKTWRHLAESFGLKRDEIGGMTDGMQLFDRISTAGYSIPELLTKLVQIERLDAVESLCADILEWAGVVPPASQPHAAS
notes: whole, on cells; C-terminally tagged in the co-IP; also called EDAR-HA

How the values were obtained:
[1] = target: T4, LDLR extracellular domain (human, UniProt P01130 22-788); assay: cell surface interaction assay: ECD tetramer on transfected cells (FIG. 5N)
T4 construct: extracellular domain; Soluble query, streptavidin tetramer; also called low-density lipoprotein receptor

EPHA5 = target: T5, EPHA5 (human, UniProt P54756); assay: SPR, LILRA3 ECD-Fc immobilized, ECD-Fc analytes at 250 nM
T5 construct: extracellular domain; analyte at 250 nM on immobilized LILRA3
Description: (§1) An irrelevant Fc-tagged protein was used as a control. Sensorgram shown is representative of at least 3 independent runs.

[2] = target: T1, EPHA3 extracellular domain; assay: as above
Description: as §1

[3] = target: T6, CLEC-2 extracellular domain (human, UniProt Q9P126 55-229); assay: SPR, Langmuir model; CLEC-2 ECD immobilized, monomeric Avi-tagged PDPN ectodomain as analyte
T6 construct: extracellular domain; Recombinant ECD in SPR and CAF assays; streptavidin tetramer in organoid cultures; also called CLEC1B; rCLEC-2
Procedure: (§2) SPR was measured using a Proteon XPR36 Instrument (Biorad) or a Biacore 3000 (GE Healthcare). […] Bulk refractive index changes were removed by substrating a reference flow response. For KD calculations, 300-400 resonance units were immobilized, and kinetic data were fit to equilibrium or a Langmuir model to calculate kinetic parameters for CD177 and CLEC-2 binding, respectively. […] All sensorgrams were analyzed with BiaEvaluation 4.1 (Biacore) or Proteon Manager 3.1.0.6 (Proteon) software.

[4] = target: T2, CD177 extracellular domain; assay: SPR, fit to equilibrium; CD177 ECD immobilized, monomeric Avi-tagged PDPN ectodomain as analyte
Procedure: as §2

IL6R expressed on cells = target: T3, IL6R expressed on cells; assay: cell surface interaction assay: soluble multimerized LILRB on transfected cells
FLT4 expressed on cells = target: T7, FLT4 expressed on cells (human, UniProt P35916 25-1363); assay: as above
T7 construct: whole, on cells; also called VEGFR3; vascular endothelial growth factor receptor 3

[5] = target: T8, LILRB4 expressed on cells (human, UniProt Q8NHJ6 22-448); assay: cell surface interaction assay: ECD tetramer on transfected cells (FIG. 5N)
T8 construct: whole, on cells; C-terminally tagged in the co-IP; also called LILRB4-FLAG

LDLR expressed on cells = target: T9, LDLR expressed on cells (human, UniProt P01130 22-860); assay: cell surface interaction assay: soluble multimerized LILRB on transfected cells
T9 construct: whole, on cells

[6] = target: B4; assay: as above

T5 sequence (P54756 25-573): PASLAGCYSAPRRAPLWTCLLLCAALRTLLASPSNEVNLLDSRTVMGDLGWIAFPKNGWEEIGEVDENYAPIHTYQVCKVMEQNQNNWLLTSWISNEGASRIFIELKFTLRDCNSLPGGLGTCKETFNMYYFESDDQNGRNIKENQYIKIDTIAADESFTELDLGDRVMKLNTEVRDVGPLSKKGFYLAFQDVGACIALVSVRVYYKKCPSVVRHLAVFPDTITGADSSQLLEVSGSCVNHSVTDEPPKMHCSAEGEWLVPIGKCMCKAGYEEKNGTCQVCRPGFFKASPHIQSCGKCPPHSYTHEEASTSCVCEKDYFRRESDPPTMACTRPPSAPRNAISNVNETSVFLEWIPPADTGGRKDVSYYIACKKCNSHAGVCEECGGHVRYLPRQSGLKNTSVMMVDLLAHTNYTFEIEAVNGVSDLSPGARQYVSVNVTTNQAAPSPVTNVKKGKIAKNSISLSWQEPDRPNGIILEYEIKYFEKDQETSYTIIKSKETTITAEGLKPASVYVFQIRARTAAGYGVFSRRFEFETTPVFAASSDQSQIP
T4 sequence (P01130 22-788): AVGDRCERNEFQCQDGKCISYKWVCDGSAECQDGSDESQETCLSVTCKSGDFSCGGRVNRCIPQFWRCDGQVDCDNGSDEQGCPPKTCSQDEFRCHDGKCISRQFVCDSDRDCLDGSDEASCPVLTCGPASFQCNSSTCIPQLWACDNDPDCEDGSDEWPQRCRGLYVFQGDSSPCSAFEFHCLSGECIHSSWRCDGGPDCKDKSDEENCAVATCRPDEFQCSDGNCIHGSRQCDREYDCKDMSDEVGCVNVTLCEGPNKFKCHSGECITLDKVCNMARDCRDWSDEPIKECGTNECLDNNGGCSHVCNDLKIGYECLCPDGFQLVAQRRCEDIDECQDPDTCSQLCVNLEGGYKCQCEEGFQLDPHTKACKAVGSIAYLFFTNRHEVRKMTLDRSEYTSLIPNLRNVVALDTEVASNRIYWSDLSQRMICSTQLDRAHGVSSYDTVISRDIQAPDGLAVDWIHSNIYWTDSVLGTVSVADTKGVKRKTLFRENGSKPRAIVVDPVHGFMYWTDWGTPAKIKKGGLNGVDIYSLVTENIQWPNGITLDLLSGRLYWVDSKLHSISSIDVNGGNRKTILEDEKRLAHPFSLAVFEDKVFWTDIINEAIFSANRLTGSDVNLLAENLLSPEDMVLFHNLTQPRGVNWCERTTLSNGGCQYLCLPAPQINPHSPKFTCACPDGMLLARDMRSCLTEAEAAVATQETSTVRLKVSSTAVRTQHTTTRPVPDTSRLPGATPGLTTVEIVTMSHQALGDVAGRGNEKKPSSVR
T9 sequence (P01130 22-860): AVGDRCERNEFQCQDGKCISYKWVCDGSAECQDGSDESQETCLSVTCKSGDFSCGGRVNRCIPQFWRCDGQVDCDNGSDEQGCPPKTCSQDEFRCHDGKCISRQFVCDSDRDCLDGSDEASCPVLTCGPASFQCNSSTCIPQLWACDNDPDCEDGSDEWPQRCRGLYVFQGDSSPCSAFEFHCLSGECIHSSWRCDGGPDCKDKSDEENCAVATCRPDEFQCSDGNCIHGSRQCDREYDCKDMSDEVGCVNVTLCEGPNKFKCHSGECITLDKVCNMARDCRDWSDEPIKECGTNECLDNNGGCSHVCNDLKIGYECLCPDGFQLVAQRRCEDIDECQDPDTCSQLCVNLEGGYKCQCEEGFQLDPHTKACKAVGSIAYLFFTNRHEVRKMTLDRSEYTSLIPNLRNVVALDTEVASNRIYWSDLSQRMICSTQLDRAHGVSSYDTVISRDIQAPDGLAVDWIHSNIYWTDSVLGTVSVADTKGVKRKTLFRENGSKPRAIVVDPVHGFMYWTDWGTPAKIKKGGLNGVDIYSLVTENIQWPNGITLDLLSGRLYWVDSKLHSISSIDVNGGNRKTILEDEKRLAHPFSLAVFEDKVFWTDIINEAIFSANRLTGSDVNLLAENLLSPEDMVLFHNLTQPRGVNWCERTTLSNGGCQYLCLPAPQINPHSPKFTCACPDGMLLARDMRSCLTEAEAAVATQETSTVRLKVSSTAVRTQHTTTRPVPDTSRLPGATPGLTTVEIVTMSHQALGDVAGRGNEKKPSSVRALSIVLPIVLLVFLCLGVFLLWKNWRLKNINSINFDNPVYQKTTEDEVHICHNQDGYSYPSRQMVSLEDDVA
T7 sequence (P35916 25-1363): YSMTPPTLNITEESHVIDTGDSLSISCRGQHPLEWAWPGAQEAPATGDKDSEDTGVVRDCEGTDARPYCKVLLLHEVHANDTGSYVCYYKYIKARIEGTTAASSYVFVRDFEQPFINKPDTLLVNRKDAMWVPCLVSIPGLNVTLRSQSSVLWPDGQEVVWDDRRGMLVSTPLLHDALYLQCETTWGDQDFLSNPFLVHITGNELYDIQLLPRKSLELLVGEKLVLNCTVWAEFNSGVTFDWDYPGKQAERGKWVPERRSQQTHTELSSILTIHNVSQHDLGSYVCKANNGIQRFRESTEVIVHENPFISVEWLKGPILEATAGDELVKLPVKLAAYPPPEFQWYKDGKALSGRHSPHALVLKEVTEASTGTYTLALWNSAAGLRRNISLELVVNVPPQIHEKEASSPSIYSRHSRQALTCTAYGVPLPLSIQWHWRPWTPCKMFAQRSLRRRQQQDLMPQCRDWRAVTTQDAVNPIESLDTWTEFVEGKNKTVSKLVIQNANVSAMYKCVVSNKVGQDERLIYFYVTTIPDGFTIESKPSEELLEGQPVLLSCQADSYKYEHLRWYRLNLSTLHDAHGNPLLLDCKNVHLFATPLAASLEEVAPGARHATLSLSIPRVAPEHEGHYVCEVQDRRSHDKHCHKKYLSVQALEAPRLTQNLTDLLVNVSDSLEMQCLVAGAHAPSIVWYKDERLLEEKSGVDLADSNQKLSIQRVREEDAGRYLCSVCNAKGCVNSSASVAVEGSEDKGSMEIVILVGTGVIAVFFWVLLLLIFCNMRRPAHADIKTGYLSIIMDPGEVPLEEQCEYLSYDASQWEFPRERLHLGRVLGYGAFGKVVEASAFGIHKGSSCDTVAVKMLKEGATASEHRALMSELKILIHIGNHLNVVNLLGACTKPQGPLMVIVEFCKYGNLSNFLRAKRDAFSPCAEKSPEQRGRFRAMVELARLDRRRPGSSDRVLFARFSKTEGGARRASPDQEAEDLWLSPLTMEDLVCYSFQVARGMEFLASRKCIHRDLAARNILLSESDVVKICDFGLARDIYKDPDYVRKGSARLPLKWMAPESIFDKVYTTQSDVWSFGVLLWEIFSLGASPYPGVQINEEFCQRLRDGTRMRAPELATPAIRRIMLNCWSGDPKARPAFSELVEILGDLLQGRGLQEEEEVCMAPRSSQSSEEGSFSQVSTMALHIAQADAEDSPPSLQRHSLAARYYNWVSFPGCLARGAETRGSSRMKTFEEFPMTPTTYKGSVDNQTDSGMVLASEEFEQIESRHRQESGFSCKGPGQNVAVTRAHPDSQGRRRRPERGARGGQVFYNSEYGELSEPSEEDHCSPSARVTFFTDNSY
T6 sequence (Q9P126 55-229): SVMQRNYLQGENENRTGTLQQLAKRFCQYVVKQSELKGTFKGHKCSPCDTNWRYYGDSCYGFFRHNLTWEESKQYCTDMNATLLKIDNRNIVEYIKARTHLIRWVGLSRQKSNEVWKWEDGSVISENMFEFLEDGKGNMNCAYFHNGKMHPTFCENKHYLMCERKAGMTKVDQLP

Binder: B1
binding result [1]: binds

Binder: B2
binding result (EPHA5): no binding (tested: 250 nM)
binding result [2]: binds

Binder: B3
Kd [3]: 210 nM
Kd [4]: 3300 nM

Binder: B4
binding result (IL6R expressed on cells): binds
binding result (FLT4 expressed on cells): binds

Binder: B5
binding result [5]: binds

Binder: B6
binding result (LDLR expressed on cells): binds

Binder: B7
binding result [6]: binds
